Test results taken from FireProtDB (doi:10.1016/j.ijbiomac.2020.05.059).
Where “and” joins values, the source holds several entries; their conditions need not be identical. Identical values can stand only once.

Conditions: Equus caballus, pH 6, 25 °C, transition: 2
[1] = GdnHCl, CD, sodium cacodylate, NaCl, reversible: yes, structure 1HRC
[2] = GdnHCl, sodium cacodylate 100 mM, NaCl 100 mM, reversible: no, structure 1HRC
[3] = Urea, CD, sodium cacodylate, NaCl, reversible: yes, structure 1HRC
[4] = Urea, sodium cacodylate 100 mM, NaCl 100 mM, reversible: no, structure 1HRC
[5] = GdnHCl, CD, sodium cacodylate, NaCl, reversible: yes

Cytochrome c L95I, P00004, sequence (P00004 whole entry L95I): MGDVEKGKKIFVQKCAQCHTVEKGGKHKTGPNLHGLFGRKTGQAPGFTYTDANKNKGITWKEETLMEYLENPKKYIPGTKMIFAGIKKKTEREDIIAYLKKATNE
Cytochrome c L95V, P00004, sequence (P00004 whole entry L95V): as the sequence (P00004 whole entry L95I) above, with I95V counted along it
Cytochrome c wild type, P00004, sequence (P00004 whole entry): as the sequence (P00004 whole entry L95I) above, with I95L counted along it

| Substance | ddG of mutation (higher = less stable) [1] | denaturant m value [1] | denaturant midpoint (higher = more stable) [1] | unfolding free energy [1] | ddG of mutation (higher = less stable) [2] | denaturant m value [2] | denaturant midpoint (higher = more stable) [2] | unfolding free energy [2] | ddG of mutation (higher = less stable) [3] | denaturant m value [3] | denaturant midpoint (higher = more stable) [3] | unfolding free energy [3] | ddG of mutation (higher = less stable) [4] | denaturant m value [4] | denaturant midpoint (higher = more stable) [4] | unfolding free energy [4] | denaturant m value [5] | denaturant midpoint (higher = more stable) [5] | unfolding free energy [5] | unfolding free energy (Urea, sodium cacodylate 100 mM, NaCl 100 mM, reversible: yes) |
| --- | --- | --- | --- | --- | --- | --- | --- | --- | --- | --- | --- | --- | --- | --- | --- | --- | --- | --- | --- | --- |
| Cytochrome c L95I, P00004 | 1.31 kcal/mol and 1.51 kcal/mol | 3.59 kcal/mol/M and 3.64 kcal/mol/M | 2.14 M and 2.15 M | 7.69 kcal/mol and 7.95 kcal/mol | 1.54 kcal/mol and 1.1 kcal/mol and 1.51 kcal/mol | 3.65 kcal/mol/M and 3.49 kcal/mol/M and 3.64 kcal/mol/M | 2.18 M and 2.06 M and 2.15 M | 7.96 kcal/mol and 7.17 kcal/mol and 7.95 kcal/mol | 1.73 kcal/mol and 1.68 kcal/mol | 1.48 kcal/mol/M and 1.47 kcal/mol/M | 5.87 M and 5.89 M | 8.68 kcal/mol and 8.7 kcal/mol | 1.68 kcal/mol and 1.83 kcal/mol | 1.49 kcal/mol/M and 1.47 kcal/mol/M | 5.9 M and 5.89 M | 8.78 kcal/mol and 8.65 kcal/mol and 8.7 kcal/mol | – | – | – | – |
| Cytochrome c L95V, P00004 | 1.66 kcal/mol and 1.82 kcal/mol | 3.54 kcal/mol/M and 3.61 kcal/mol/M | 2.07 M and 2.11 M | 7.34 kcal/mol and 7.64 kcal/mol | – | – | 2.1 M and 2.01 M and 2.11 M | – | 2.36 kcal/mol | 1.47 kcal/mol/M | 5.46 M | 8.02 kcal/mol | – | 1.48 kcal/mol/M and 1.47 kcal/mol/M | 5.46 M and 5.43 M | – | – | – | – | – |
| Cytochrome c wild type, P00004 | – | – | – | – | – | – | – | – | – | – | – | – | – | – | – | – | 3.64 kcal/mol/M and 3.73 kcal/mol/M | 2.47 M and 2.53 M | 9 kcal/mol and 9.46 kcal/mol | 10.5 kcal/mol and 10.3 kcal/mol and 10.4 kcal/mol |
